Reference: article PMC13750308 (2026)
Values belong to the molecule of their own block, whether it stands above or below them.

Experiments:
[1] = molecular target: Centrobin peptide motif (Homo sapiens) (UniProt Q8N137); conditions: cited from earlier work
Cep192 IDR+ASH8 = molecular target: T1, Cep192 IDR+ASH8 (Homo sapiens, UniProt Q8TEP8); experiment: GFP-Trap bead supernatant depletion pull-down with western blot
T1 chain: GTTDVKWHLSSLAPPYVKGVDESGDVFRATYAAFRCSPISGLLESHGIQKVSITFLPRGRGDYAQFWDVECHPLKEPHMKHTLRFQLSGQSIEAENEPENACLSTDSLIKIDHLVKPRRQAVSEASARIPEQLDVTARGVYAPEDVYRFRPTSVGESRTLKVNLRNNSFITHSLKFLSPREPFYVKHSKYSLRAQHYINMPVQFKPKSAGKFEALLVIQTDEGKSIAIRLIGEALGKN

Molecule: TRIM37 MATH (from UniProt O94972)
Kd [1]: 14 µM

Kd (Cep192 IDR+ASH8): 0.075 µM
B1: TRIM37 (protein)
chain: MDEQSVESIAEVFRCFICMEKLRDARLCPHCSKLCCFSCIRRWLTEQRAQCPHCRAPLQLRELVNCRWAEEVTQQLDTLQLCSLTKHEENEKDKCENHHEKLSVFCWTCKKCICHQCALWGGMHGGHTFKPLAEIYEQHVTKVNEEVAKLRRRLMELISLVQEVERNVEAVRNAKDERVREIRNAVEMMIARLDTQLKNKLITLMGQKTSLTQETELLESLLQEVEHQLRSCSKSELISKSSEILMMFQQVHRKPMASFVTTPVPPDFTSELVPSYDSATFVLENFSTLRQRADPVYSPPLQVSGLCWRLKVYPDGNGVVRGYYLSVFLELSAGLPETSKYEYRVEMVHQSCNDPTKNIIREFASDFEVGECWGYNRFFRLDLLANEGYLNPQNDTVILRFQVRSPTFFQKSRDQHWYITQLEAAQTSYIQQINNLKERLTIELSRTQKSRDLSPPDNHLSPQNDDALETRAKKSACSDMLLEGGPTTASVREAKEDEEDEEKIQNEDYHHELSDGDLDLDLVYEDEVNQLDGSSSSASSTATSNTEENDIDEETMSGENDVEYNNMELEEGELMEDAAAAGPAGSSHGYVGSSSRISRRTHLCSAATSSLLDIDPLILIHLLDLKDRSSIENLWGLQPRPPASLLQPTASYSRKDKDQRKQQAMWRVPSDLKMLKRLKTQMAEVRCMKTDVKNTLSEIKSSSAASGDMQTSLFSADQAALAACGTENSGRLQDLGMELLAKSSVANCYIRNSTNKKSNSPKPARSSVAGSLSLRRAVDPGENSRSKGDCQTLSEGSPGSSQSGSRHSSPRALIHGSIGDILPKTEDRQCKALDSDAVVVAVFSGLPAVEKRRKMVTLGANAKGGHLEGLQMTDLENNSETGELQPVLPEGASAAPEEGMSSDSDIECDTENEEQEEHTSVGGFHDSFMVMTQPPDEDTHSSFPDGEQIGPEDLSFNTDENSGR
